# Patent US20200115460A1 (TEIJIN PHARMA, published 2020)
# B1: IGF11-16 (antibody, mouse IgG1, kappa, V domains shown)
# VH: QIQLQQPGAELVKPGASVKLSCKAPGYTFTSYWMHWVKQRPGQGLEWIGETNPSNSVTNYNEKFKSKATLTVDKSSSTAYMQLSSLTSEDSAVYYCTIGRGRGFAYWGQGTLVTVSA
# VL: DIQMNQSPSSLSASLGDTITITCRASQNINFWLSWCQQKPGNIPKLLIYKASNLHTGVPSRFSGSGSGTDFTLTISSLQPEDIATYYCLQGQSYPYTFGGGTKLEIKR
# notes: no cleavage site is stated; also called IGF-I receptor agonist antibody; IGF11-16 antibody
# Experiments:
# [1] = molecular target: T1, Substitution 3 of the CR domain (human IGF-I receptor G315S/S316T, FLAG tag) (human, UniProt P08069 31-1367); assay: Cell ELISA, 1 nM antibody, fixed HEK 293T cells
# T1 construct: Expressed on transfected HEK 293T cells
# Protocol: (§1) On the next day, each plasmid DNA was transfected into the cells by lipofection. On the following day, the HEK 293T cells were detached with 0.25% trypsin/EDTA and were suspended in a broth. The HEK 293T cells were added to a 96-well plate (coated with poly-D-lysine) at a concentration of 0.8×10⁵ cells/well and were incubated at 37° C. under conditions of 5% CO₂ overnight. The medium was removed from the 96-well plate, and the cells were immobilized with a 10% buffered formalin (Mildform® 10 NM, Wako). The 10% buffered formalin was replaced with a blocking buffer (3% BSA/PBS/sodium azide), and the plate was used in ELISA.
# (§2) After washing with a washing liquid twice, anti-mouse-IgG antibody-HRP conjugate solutions (50 μL) adjusted to predetermined concentrations with 0.1% skimmed milk/3% BSA/PBS were added to respective wells and were subjected to reaction at room temperature for about 1 hour. After washing with a washing liquid twice, 100 μL of a substrate (TMB) was added to each well to start the reaction. After about 30 minutes, 100 μL of 0.5 M sulfuric acid was added to each well to stop the reaction, and the absorbances at 450 nm was measured. The value of the absorbance at 450 nm was evaluated as the avidity.
# [2] = molecular target: T2, wild-type rat IGF-I receptor (FLAG tag, Example 7) (rat, UniProt P24062 31-1370); assay: Cell ELISA, 1 nM antibody, fixed HEK 293T cells
# T2 construct: Expressed on transfected HEK 293T cells
# T2 sequence (P24062 other isoform, or with tags, fused parts or gaps limits assumed): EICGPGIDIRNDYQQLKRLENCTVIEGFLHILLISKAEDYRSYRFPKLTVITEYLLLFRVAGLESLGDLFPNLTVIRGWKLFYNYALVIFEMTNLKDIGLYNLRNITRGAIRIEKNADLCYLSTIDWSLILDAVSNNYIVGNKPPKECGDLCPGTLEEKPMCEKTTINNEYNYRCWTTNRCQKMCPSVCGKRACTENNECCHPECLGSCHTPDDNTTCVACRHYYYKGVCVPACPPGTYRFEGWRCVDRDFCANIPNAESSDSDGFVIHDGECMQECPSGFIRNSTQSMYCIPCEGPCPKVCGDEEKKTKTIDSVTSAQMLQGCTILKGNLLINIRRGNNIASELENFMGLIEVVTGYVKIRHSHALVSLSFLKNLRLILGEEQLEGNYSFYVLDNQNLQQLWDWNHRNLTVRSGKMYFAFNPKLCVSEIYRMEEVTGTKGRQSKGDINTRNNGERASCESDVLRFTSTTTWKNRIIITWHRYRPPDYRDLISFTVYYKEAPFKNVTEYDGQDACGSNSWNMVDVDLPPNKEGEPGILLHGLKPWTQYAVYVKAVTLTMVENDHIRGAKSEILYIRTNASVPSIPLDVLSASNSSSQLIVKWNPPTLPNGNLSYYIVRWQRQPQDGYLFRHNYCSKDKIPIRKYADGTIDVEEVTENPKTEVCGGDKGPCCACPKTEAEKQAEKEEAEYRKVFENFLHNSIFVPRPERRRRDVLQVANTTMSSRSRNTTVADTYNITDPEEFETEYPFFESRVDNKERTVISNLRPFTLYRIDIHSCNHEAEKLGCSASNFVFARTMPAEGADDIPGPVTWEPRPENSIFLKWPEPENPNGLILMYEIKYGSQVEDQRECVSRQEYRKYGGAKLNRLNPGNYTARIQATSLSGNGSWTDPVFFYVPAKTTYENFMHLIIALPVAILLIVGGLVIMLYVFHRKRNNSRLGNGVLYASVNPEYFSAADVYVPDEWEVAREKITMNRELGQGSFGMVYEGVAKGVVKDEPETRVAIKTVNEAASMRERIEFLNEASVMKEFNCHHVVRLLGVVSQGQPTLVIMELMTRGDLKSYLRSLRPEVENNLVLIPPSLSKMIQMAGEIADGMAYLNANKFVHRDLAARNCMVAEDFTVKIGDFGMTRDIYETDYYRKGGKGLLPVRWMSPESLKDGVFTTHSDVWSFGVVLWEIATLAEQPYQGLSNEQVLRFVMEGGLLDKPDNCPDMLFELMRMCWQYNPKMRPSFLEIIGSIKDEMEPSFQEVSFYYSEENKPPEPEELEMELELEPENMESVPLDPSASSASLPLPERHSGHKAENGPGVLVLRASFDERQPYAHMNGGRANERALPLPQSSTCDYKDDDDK
# Protocol: as §1, §2
# [3] = molecular target: T3, Substitution 2 of the CR domain (human IGF-I receptor E294D, FLAG tag) (human, UniProt P08069 31-1367); assay: Cell ELISA, 1 nM antibody, fixed HEK 293T cells
# T3 construct: Expressed on transfected HEK 293T cells
# Protocol: as §1, §2
# [4] = molecular target: T4, Substitution 1 of the CR domain (human IGF-I receptor D245N/A247T, FLAG tag) (human, UniProt P08069 31-1367); assay: Cell ELISA, 1 nM antibody, fixed HEK 293T cells
# T4 construct: Expressed on transfected HEK 293T cells
# Protocol: as §1, §2
# [5] = molecular target: T5, wild-type human IGF-I receptor (FLAG tag, Example 7) (human, UniProt P08069 31-1367); assay: Cell ELISA, 1 nM antibody, fixed HEK 293T cells
# T5 construct: Expressed on transfected HEK 293T cells
# Protocol: as §1, §2
# human insulin receptor = molecular target: T6, human insulin receptor (human, UniProt P06213 28-1382); assay: Cell ELISA, fixed HEK 293T cells expressing the receptor
# T6 construct: whole, on cells; Expressed on transfected HEK 293T cells; also called INSR; hINSR
# Protocol: The HEK 293T cells after the lipofection were added to a 96-well plate (coated with poly-D-lysine) at a concentration of 0.8×10⁵ cells/well (about 180 μL/well) and were immobilized with 10% buffered formalin (Mildform® 10 NM, Wako), followed by blocking with phosphate buffer containing 3% BSA. The plate was used in ELISA.
# In ELISA, antibody solutions (30 μL) adjusted to predetermined concentrations with 0.1% skimmed milk/3% BSA/PBS were added to respective wells and were subjected to reaction at room temperature for about 1 hour. After washing with a washing liquid (tris buffer containing Tween) twice, anti-mouse-IgG antibody-ALP conjugate solutions (30 μL) adjusted to predetermined concentrations with 0.1% skimmed milk/3% BSA/PBS were added to respective wells and were subjected to reaction at room temperature for about 1 hour. After washing with a washing liquid twice, 100 μL of a substrate (PNPP) was added to each well to start the reaction.
binder,measurement,setting,value
B1,absorbance at 450 nm,[1],~1 absorbance at 450 nm
same,absorbance at 450 nm,[2],~1 absorbance at 450 nm
same,absorbance at 450 nm,[3],≥ 2 absorbance at 450 nm
same,absorbance at 450 nm,[4],≥ 2 absorbance at 450 nm
same,absorbance at 450 nm,[5],≥ 2 absorbance at 450 nm
same,"avidity (absorbance difference 405-550 nm, Mock cells = 1) at 0.5 nM",human insulin receptor,1.1 fold of Mock cells
same,"avidity (absorbance difference 405-550 nm, Mock cells = 1) at 5 nM",human insulin receptor,1.4 fold of Mock cells
